# In the DeepSol protein solubility set:
# Assay: soluble on expression in E. coli; label from the status in PepcDB or PDB records
row,Sequence,soluble on expression in E. coli
1,MAHHHHHHMSTNISPNIKKGGVTAADLMQLQGAALRLRSQCTQREADNRRLTQKLREYEEQLFFLRANELILRKQVSVWSSYHRLFAQPLYEARLAVERYKHEAHQSLVHEMQVDRQRRSSLANAANEKRERERAGLQARLRQLQELQDEKRKKNEELELRLRRASEESLRAQKQASKLKDELAYCMDRLEESERERERVKRHLSEHEAALLKARHNVAGMGHFEEEIRSRDTVIAQLQRTVRELNTIMAQQSASRLEEANGENTPPQHEAEEKKLAASPQRLLNDSCDSEWVLKQSIGWFRSKMEREMKPSTPRRQMFEPCSSSAHPAPSLSSFSWMEGRCDSGDVDLQEFLSRELQAPLL,not soluble
2,MAHHHHHHMANSKFSYVKLFEEERKILLNCYFIVRIDGCDFKHFVKAHNYNKPNDIKGLNLMNECALDILKKFDDIDLCYGHSDEYSFLFNKSTKLWNRRYDKILTNVVSYFTSCFLYKWKNYFQKEMLYAPSFDARIVVYPNEKEIKDYFSWRQVDCHINTQYNECFWNLIRQANYTNDEAHKFLLTTQTKDKNELLFSRFNINYNNLPEIFRRGTIIIRNKTFQKKNEALGTIYNNDTANNIDDNNNNNNNNNNTFNDNNDIENFEKLKKECLPKFIISHENLVSEKFWDKYDYIFKKKKDLEKK,not soluble
3,MGSDKIHHHHHHMGFWHSMSWKTEGIRVTAPVQWRQYDGMVSVLWEAESQAGASGYYLADDPRIMFFFNDVSSSVRISNQDNDLARNSRPMARAVYVPAGVPLWTGSRKTHSFSHLNLHLHKDRVLRFLAPSVGNSAAQTALRCPVELQNVAAIDALAKLLADEIKSPTKHAVYAESLIGSIIAGLLDIPTEREERAGGRLTQAQINKLVSHIDALGDYRMSVADMAAVVGLSESWFASVFKQTMGITPLQWQLAKRVELTKKLLGESDLPVASIAAQLGFADQAHLTKVFRQIVGETPAAWRRMRQFRQS,not soluble
4,MTASRPAFLHLSPADTVGIALRALPSGEEALGVTLRADVPLGHKFAVVAMPAGTAVVKYGQVMGVATADIAPGDHVHSHNCAMSDSHSNRADAKGTLHAAPGRQTFQGYLRPDGRVGTRNYIGIMASVNCSSTVCNAIAEAANRTLLPRFPGIDGFAPIVHDQGCGMASAGEGFDALVRVLKGYRDHPNFGGVLIVGLGCEVNQLTLYKRTDWTEERIGIFNIQDVGGSASAVRRALELLEPICAAADQDRRSEQPVSKLVLGMQCGGSDGFSGITANPALGVASDMLVAAGGTSILSETPEIYGAEHLLIARADAETGRRIEGMIDWWRDYAAKNGASLDNNPSPGNKRGGLTTILEKSLGAVAKGGLSPLAGAFAYAEPIRIPGLVYMDSPGYDPVAATGQVASGANLIAFTTGRGSCFGAKPAPSIKLASNSDLARRMPEDMDIDCGVVVEEGVSLEEMGRRIYDLLLDTASGKRSKSEEFGYGDNEFVPWKIGATL,not soluble
5,SLLEIDNQTPLESDFSLLEKIAKFLAPTQIIELVLVSDETMREINRDLRGCDYVTDVLSFPLEAIPHTPLGSVVINAPLAQENALKLGHRLEEEIALLFIHGVLHLLGYDHEKDKGEQRQKESELIKAFNLPLSLIERTQD,soluble
6,MFIPKSHTKLIYEYLFNEGVTVAKKDFNAKTHPNIEGVSNLEVIKTLKSLASRELVKEQFAWRHYYWYLTDAGILYLREYLALPAEIVPATIKTKPREIRVPHEDRAPRAAQGEKGDREAYRTEKVTEAGPGGAPVYRAGFGRGAPPPQ,not soluble
7,MKHSNKPYDSFQDELEDYIKVQKARGLEPKTCFRRMRGEYLESCGYREEFDSRPRYRMFDQRLPSGTNHSYPRSCSSSQTEDRVPQWLPAHDKIRLNSLSYCQFTRDGFSEKPVPLNLSQQEYNCGSYSVESVVHKRLCSEHSTIDPQVSHRQMHQKRKKHVEEGREKQEERPKHERKRSSEEMDLNKHRSIQRKKTKAETETVQDGTEKLKNRKEKKTRDVSSKKEDRKRRKEKKEQGEERTEEEMLWDQSILGF,not soluble
8,MSIQIPRGTQDILPGTVELWQYIEGQAREICRRYNYKEIRTPIFEHTELFLRGVGDTTDIVQKEMYSFQDRGERSLTLRPEGTAPVVRSYVENKMFGDATQPTKLYYIGQMFRYERPQAGRYRQFVQFGIEAIGSNDPAIDAEVIALAVEFYRGMGLKNIKVVLNSLGDAASRQAHRDALIAHFEPRIGEFCSDCQSRLEKNPLRILDCKKDRNHELMGTAPSITEYLNEDSAVYYDKVQELLTMMDVPFEKDPNLVRGLDYYQHTVFEIMSEAEGFGAITTLSGGGRYNGLVQEIGGPEMPGIGFAMSIERLIMALKAENIELPIEHSIDCYVVALGEKAKDHAAKVAFDLRKAGLAVEKDYLDRKMKAQFKSADRLKAKFVAVLGEDELDKGIINLKDMATGEQEEVALDVFASYVAEKLI,soluble
9,NELDVPEQVDKLIQQATSIERLCQHYIGWCPFW,soluble
10,LVLEGGGMRGVFTCGVLDYLMDHDIRFPYAIGVSAGACNGLSYASRQRGRAKFSNIDLLEKYNYIGLKHLLRKRNILDFDLLFNEFPEHILPYDYDTYFASPERFVMVTTNCMTGEANYFEEKRDKSRVIDIVRASSSLPFVCPVTYVDGVPMLDGGIVDSIPLQRAIADGYTRNVVILTRNRGYRKDTKDIRIPSFVYRKYPKLREALSRRCAVYNEQLEMVEQMEDEGKIIVIRPQKPVMVDRIERDVQKLTEFYEEGYDCARNLFEF,not soluble
11,MGSDKIHHHHHHMAKSKSTYSCTECGGQTLKWQGQCPHCQAWNTLVEAMSEKAAARFTPVSESREVQSLSEVEAEEEQRYSTGLLEFDRVLGGGLVQGGVVLLGGDPGIGKSTLLLQALCNMSLLPLARNVLYVSGEESARQVAMRAKRMGVDAKALHLLAEIRLERIQEVLAERKPDVAVIDSIQTVYSDALQSAPGSVAQVRECAAQLTRLAKASGTGMILVGHVTKEGALAGPRVLEHMVDTVLYFEGDTHSSFRLIRAFKNRFGAVNELGVFAMTEKGLREVSNPSALFLSHHGGQVPGSCIMVTQEGTRPLLVEIQALVDEAHSPNARRLSVGLEQNRLAMLLAVLHRHAGIACFDQDVFVNAVGGVKITEPGADLAVLLAIVSSLKNRPLPEKTVVFGEVGLAGEVRPVQRGLERLREAAKLGFVQAIVPKANKPKATPPGIEIIAVERVEEAVARMR,not soluble
12,MAQVFNFSSGPAMLPAEVLKLAQQELCDWHGLGTSVMEISHRGKEFIQVAEEAEQDFRDLLNIPSNYKVLFCHGGGRGQFAGVPLNLLGDKTTADYVDAGYWAASAIKEAKKYCAPQIIDAKITVDGKRAVKPMREWQLSDNAAYLHYCPNETIDGIAIDETPDFGPEVVVTADFSSTILSAPLDVSRYGVIYAGAQKNIGPAGLTLVIVREDLLGKAHESCPSILDYTVLNDNDSMFNTPPTFAWYLSGLVFKWLKAQGGVAAMHKINQQKAELLYGVIDNSDFYRNDVAQANRSRMNVPFQLADNTLDKVFLEESFAAGLHALKGHRVVGGMRASIYNAMPIEGVKALTDFMIDFERRHG,not soluble
13,MTPYMANTKWVDGSVRSDFPQEKMARLYNLNYTIASQVNPHVVPFMQSDASRYRKDILSWPQRILRRQGKVISLGIMDFTRERLGNVPPVRRLLDHGYGIVGQRYYGDVNIIAPFNLRQYAYMLQNPRPHLFKLLQQQGERATLEHHHHHH,not soluble
14,MSGPVRTRRILEELGPTYIKLGQLLSMRRDLVPLEYAAEFSKLQDDAPSFGFEEVELIIREELGLPVEDLFESFEKKPLACASIGQVHRAKLKNGDDVVVKVQRPGIKEVIESDLDIMYSLSRLLTEHIPEARLYRPVELVDELSRSILAEIDYSQEGWNTDRFAENFKDSEQIHIPKVYWDYTGTRVLTLEYIEGIKGGRVDLLEKLEHHHHHH,not soluble
15,MSLQYQVVPVTAFAQNCSIVWCDETMEGIVVDPGGDVKQLAMLIAELGVKVTQLVLTHGHLDHVGGTQSLAQALGGTRVVGPHKADNFWLQGLEGQSKMFGFPLTEAFEPDEWLDDGDVIHFGQQTLQVIHTPGHTPGHVVLFSEAARLAFVGDVLFNGSIGRTDFPQGDFNTLIASIKNKLWPLGSDVTFIPGHGPQSTFGRERASNPFVADEMPLY,not soluble
16,GAKDSTVQTSISVENVLERAGDSTPFSVALESIDAMKTIEEITIAGSGKASFSPLTFTTVGQYTYRVYQKPSQNKDYQADTTVFDVLVYVTYDEDGTLVAKVISRRAGDEEKSAITFKPKRLVKPIPPRQPDFPKTPLPLA,soluble
17,ERNKVESTLLDKVLFLETLVDTIPAPVFYKDREGIYRGCNDLFAKMILGIPKEKVAGCSIDEFLEKIPQELGNVYKRTDRQLLQRGGSLIYESRIMCSDGLLRQFLINKAAYRNLNGDMEGLVGVMLDIT,not soluble
18,MGSDKIHHHHHHYLFQTYGSNKGEIIECKNCYCFKDQWNNIKNNPSINKNAKVLSCWLYYDKASPKPALKIMLINKNKFHRFQYVDAICKNDEIVLEFNGTYKNLENEFSKGISTDEFMTSLDTVWKNAHNIFKTPSSKYSLFVTSKHSNSITKQSNAFYIGKNGALTKISEKDFPLNDVNYMNCSKLDEQDKSSENACIIFK,not soluble
19,MAAETTSEDVKLAASFKDASKLGIDQKSGIPRKVKGTLTWRLELKRTNDGFWISAFFKGASKKKISIKAEFTLLCAGQEPLNKTEKKDSDCTKKSTEYEVCAMFTECETENHFEKGSDLRFEVELTIVMENSSKKSSVKPKPEAKQEPTKENDKIVGSESMMLDQLTSKLFLKASEGARIISNEIINDLLDIANRFDVPEVKTKCEQFLLEDLKKALKEKMETAEKYELDCLQAVKSADDALANSLEKLAIK,not soluble
20,MGSDKIHHHHHHMVKNYVLDTNVLIHDPDSIFSFEDNNVIIPLPVLEELDKLKREHGSVGKNAREVIRHLDELRKKGNLRKGIPLENGGILRVMVLEREVENVPRFLHERYVDNIILAYVIELMNREKIPTILVSKDINLRVKADSLGIPAQDYLTDRSELETMPKGYVEIDDEELKKQLKVKVTVEKKLDLLDNFYIDLGGVYGKYRKGKVLRVEPFETMGISPRNREQIFSMDALLDDEIPLVFLVGIAGTGKTLLALACGLYKVLVEKRYKKLIVTRPTVPMGRDIGYLPGELEKKMKPWLQPIMDNLELISSLSGLKIKELEKQEILEVEAISFIRGRSIPKQFIIIDEAQNLTPHEVKTILTRVGEDTKIVLVGDPYQIDTPYLDKDTNGLVYAALKLLESDLSAVIKLEKGERSRLATIAAELL,not soluble
21,MQDLGEVEEDPTELRIDVRHGFDTGPMNVQIAQLMQLATGRRRAPRQSSGSGIQLKIGGRIEVLSYQRKMHEAMKYLLGRLFGGKTVKVNHLAIGCKTILRIPTSFKLHVENLEILDTNTYNNMETVRLMIEASSLPLNMVKFRPTNFTTNNHPIVRTARMLYIHATSTRRRFRDFIEALARLKNIRVHVESRDLSSGSWYMTVFRCWMRYGKKVGTYYTFGTTEETINSAMKVFGRLYGSRTGFDGQITINLKKTSQVVIRKVQQENEWILGMKVESR,not soluble
22,MGSDKIHHHHHHMIQGKKVVSTLDVSDLEPGKKHLLYFQGVEMPTGQHWHVSVTVAKGAKPGKRGVLVSGVHGDEMSSVHTIQTVMSQLDPAQMSGTVMAVTDVSRPAMEGMQRRWPNFGRGTDLIDMNREWPGNENGVTAASRQAGLLFNRLLRPNADFAIDFHTGTTGFDVAAFNIGGMDVPEIKAMLELYPVGQIFDNHVYPSVLHNAFIAAGIPSFCPEIGAARVLDLEMISLFVEGTMNVLKHHGIVAGPMGRTGKDVHVFVGNSAFPILATAGGLVEHLVKLNDKVEAGQKLAIQRDSFGEVVAEYASGVAGEISGLRSDAMSEPGNPLVFVLFNKPGPEDVGGYPE,not soluble
